This is an account of results in paper PMC7864917.

The experiment concerns the target wild-type pig RyR1 (ryanodine receptor 1) (pig (purified from porcine skeletal muscle)) (UniProt P16960).
Chain of UniProt P16960 (P16960 whole entry): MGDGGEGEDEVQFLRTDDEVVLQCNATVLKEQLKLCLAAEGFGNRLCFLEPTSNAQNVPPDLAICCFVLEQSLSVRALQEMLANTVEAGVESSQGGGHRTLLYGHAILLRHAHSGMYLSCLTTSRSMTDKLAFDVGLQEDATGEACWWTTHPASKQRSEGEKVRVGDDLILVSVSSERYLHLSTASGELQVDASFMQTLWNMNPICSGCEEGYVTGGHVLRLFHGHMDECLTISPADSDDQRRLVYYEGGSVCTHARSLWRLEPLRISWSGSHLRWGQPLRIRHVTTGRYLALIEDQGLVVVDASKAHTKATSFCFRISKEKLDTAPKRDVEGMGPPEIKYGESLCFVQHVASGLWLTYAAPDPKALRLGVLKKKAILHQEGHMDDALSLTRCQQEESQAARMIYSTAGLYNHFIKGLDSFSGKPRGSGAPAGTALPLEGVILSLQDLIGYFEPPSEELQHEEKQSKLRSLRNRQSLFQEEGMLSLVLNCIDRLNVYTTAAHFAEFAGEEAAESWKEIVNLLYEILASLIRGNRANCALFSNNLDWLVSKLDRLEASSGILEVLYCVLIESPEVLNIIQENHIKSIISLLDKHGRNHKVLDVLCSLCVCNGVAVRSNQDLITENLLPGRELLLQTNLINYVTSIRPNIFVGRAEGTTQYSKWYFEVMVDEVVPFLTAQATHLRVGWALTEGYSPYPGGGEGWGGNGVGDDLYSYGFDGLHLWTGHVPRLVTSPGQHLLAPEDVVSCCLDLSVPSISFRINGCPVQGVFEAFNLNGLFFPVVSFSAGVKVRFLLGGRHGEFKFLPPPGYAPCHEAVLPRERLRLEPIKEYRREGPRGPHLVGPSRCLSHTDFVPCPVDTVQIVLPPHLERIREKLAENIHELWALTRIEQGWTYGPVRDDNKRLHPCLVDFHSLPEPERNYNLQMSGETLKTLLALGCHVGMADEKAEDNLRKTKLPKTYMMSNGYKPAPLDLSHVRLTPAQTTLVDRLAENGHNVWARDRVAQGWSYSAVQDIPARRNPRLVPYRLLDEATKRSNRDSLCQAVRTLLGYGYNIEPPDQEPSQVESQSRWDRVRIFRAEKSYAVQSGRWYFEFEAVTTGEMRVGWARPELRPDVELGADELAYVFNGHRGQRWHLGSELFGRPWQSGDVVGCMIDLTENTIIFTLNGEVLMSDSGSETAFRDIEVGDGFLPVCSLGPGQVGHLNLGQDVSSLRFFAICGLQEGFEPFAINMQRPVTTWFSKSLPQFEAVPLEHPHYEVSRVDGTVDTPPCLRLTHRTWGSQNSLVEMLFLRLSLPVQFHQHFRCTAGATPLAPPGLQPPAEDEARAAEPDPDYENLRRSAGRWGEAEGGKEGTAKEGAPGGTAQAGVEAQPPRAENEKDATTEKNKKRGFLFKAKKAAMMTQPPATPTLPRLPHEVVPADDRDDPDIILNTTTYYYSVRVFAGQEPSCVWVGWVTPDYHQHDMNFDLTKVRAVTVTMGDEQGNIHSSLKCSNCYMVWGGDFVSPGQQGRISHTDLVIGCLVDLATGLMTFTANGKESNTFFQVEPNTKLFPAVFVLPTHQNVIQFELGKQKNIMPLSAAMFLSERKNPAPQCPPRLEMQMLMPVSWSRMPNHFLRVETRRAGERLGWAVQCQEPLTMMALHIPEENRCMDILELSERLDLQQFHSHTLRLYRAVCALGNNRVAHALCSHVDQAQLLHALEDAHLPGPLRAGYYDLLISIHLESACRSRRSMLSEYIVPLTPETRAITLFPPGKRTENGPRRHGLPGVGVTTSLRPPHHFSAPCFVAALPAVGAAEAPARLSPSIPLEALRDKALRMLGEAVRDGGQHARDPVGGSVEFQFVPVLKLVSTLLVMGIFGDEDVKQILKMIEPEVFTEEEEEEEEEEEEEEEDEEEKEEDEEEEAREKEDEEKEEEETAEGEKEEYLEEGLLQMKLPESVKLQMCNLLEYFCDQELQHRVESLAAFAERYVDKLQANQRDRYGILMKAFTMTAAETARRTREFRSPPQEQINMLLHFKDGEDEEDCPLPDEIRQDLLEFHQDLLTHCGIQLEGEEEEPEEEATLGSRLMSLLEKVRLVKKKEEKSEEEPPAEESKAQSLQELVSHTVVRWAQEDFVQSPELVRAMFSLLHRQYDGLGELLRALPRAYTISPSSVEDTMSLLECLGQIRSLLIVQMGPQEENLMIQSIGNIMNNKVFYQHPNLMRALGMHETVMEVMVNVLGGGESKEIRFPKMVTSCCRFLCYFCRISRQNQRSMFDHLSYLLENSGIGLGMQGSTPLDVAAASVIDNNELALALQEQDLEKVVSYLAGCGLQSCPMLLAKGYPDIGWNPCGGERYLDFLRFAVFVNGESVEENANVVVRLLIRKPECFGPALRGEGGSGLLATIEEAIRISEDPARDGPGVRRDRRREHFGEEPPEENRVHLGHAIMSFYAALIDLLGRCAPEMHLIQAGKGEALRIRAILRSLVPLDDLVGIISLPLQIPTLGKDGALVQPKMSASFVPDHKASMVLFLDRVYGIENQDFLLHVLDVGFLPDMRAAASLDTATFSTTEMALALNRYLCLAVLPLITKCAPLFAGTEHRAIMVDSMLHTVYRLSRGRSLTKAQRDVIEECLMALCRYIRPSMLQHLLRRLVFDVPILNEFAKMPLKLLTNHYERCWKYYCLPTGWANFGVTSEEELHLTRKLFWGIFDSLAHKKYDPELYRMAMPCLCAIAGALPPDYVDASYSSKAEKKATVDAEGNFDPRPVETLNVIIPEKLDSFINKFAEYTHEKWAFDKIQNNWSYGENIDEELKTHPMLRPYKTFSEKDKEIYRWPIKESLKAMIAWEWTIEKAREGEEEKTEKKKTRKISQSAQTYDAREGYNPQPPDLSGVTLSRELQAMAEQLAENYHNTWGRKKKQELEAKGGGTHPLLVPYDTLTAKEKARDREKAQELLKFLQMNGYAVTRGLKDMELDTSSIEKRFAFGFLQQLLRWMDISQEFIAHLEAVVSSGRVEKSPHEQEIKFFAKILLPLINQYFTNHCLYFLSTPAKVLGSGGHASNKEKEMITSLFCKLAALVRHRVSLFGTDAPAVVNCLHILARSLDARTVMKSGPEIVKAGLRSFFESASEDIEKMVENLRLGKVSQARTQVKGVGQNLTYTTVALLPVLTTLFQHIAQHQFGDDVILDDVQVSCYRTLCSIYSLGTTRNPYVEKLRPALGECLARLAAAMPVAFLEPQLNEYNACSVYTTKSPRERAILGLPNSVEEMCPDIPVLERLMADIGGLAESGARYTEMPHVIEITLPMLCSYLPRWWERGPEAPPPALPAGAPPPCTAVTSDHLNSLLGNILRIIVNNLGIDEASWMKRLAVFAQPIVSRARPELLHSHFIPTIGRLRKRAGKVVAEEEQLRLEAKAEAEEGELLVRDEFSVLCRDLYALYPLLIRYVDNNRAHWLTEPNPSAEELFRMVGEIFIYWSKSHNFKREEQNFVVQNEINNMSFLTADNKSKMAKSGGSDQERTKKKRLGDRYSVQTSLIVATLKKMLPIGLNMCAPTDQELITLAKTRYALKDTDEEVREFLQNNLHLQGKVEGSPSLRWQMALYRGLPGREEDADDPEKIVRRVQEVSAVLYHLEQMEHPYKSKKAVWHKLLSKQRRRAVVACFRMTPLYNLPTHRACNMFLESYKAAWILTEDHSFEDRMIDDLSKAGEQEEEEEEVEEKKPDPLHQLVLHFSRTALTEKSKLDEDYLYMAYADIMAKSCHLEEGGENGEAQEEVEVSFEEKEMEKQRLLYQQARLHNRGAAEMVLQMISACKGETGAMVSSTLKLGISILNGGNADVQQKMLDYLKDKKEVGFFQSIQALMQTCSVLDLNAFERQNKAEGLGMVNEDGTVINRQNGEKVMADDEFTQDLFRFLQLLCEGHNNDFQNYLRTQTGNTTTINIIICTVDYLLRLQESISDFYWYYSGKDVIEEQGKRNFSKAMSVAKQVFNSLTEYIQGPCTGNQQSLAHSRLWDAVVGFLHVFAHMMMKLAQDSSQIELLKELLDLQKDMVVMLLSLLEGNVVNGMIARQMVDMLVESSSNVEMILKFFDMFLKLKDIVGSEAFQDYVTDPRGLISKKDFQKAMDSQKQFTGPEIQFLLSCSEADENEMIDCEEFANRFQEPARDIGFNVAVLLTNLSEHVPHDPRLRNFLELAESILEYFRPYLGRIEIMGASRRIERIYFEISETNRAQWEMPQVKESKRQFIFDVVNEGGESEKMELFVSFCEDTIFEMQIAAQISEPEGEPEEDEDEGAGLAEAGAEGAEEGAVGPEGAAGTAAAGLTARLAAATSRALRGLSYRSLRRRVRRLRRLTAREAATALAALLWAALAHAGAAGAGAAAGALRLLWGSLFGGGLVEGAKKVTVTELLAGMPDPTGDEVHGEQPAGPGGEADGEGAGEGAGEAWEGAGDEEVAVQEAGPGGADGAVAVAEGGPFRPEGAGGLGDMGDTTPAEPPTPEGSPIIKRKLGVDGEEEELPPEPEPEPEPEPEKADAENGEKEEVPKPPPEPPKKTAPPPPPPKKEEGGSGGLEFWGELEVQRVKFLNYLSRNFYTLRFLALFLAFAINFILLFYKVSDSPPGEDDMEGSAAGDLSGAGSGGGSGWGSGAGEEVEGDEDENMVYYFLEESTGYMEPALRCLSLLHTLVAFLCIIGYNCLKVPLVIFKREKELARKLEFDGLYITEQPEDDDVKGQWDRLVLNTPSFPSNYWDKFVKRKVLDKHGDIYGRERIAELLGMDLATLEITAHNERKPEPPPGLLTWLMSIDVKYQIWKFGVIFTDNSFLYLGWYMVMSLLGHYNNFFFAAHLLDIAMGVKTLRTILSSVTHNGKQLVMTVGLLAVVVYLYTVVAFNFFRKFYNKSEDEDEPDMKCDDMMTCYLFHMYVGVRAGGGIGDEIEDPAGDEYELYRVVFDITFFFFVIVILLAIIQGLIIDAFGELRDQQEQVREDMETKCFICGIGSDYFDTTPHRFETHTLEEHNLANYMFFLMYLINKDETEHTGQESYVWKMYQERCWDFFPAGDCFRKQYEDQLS

Consider “apo-calmodulin (from UniProt P0DP23 1-149) (natural protein)”, for which the single-channel open probability (Po) in planar lipid bilayers with 1 uM calmodulin, 40 nM free Ca2+, 2 mM ATP was 2 fold.
